The values below come from patent publication US20240279355A1 (Hoffmann-La Roche, published 2024).

Experiment [1] addresses T1, human STEAP-1 (six-transmembrane epithelial antigen of prostate 1) (human, UniProt Q9UHE8 1-339).
T1 construct: Full-length human STEAP1 stably expressed on CHO-K1 cells (CHO-hSTEAP1); endogenous on LnCAP and 22Rv1 cells in the functional assays; also called hSTEAP-1
In words: flow cytometry on CHO-K1 cells stably transfected with full-length human STEAP1, PerCP anti-human IgG secondary. From the text: A gene encoding full-length human STEAP1 was subcloned into mammalian expression vector. The plasmid was transfected into CHO-K1 (ATCC CRL-9618) cells using Lipofectamine LTX Reagent according to the manufacturer's protocol (Invitrogen, #15338100). Stably transfected STEAP1-positive CHO cells were maintained in DMEM/F-12 medium (Gibco, #11320033) supplemented with 10% fetal bovine serum (Gibco, #16140063) and 1% GlutaMAX Supplement (Gibco; #31331-028). Two days after transfection, puromycin (Invivogen; #ant-pr-1) was added to 6 μg/mL and the cells were cultured for several passages. After initial selection, the cells with the highest cell surface expression of STEAP1 were sorted by BD FACSAria II cell sorter (BD Biosciences) and cultured to establish stable cell clones. The expression level and stability was confirmed by FACS analysis using vandortuzumab and PerCP-conjugated Fc gamma-specific goat anti-human IgG (Jackson ImmunoResearch, #109-126-097) as secondary antibody over a period of 4 weeks.

Experiment [2] concerns the target T1, human STEAP-1 (six-transmembrane …). In words: cell-based ELISA on CHO-K1 cells stably expressing human STEAP1; binding EC50 of the stressed sample against the untreated sample x100. Here is the method: Characterization of Binding Potency After Stress Using a Cell-Based ELISA To quantify the reduction in binding potency caused by 1-4 weeks stress at either pH 7.4 or 6.0, a cell-based ELISA was employed using CHO-K1 cells stably expressing human STEAP1. For this cell-based ELISA, 10,000 cells were seeded per well of a 96-well plate and incubated for 18 h at 37° C., 5% CO₂. Supernatant was removed using an automated washer (BIOTEK), and 100 μl of a dilution series (10 pM-30 nM) of antibody constructs in growth medium was added to each well. After 1 h of incubation at 4° C., wells were emptied and 100 μl of 0.05% glutaraldehyde in PBS added for 10 min at RT. After 4 washes with PBS/0.025% Tween20 (PBST), 100 μl of anti-human-IgG-HRP (Jackson) diluted 1:20000 in Blocking buffer (Roche) was added and plates incubated for 1 h at room temperature (RT). Wells were washed 6 times with PBST and signal was generated using 100 μl of TMB per well, the reaction stopped after 10 minutes with 50 μl 1 M HCl and absorbance measured at 450 nm. Data (Table 4) were expressed as “% binding”, dividing the binding EC50 of the stressed sample by that of the untreated sample multiplied by 100.

In experiment [3] the target is FcRn (neonatal Fc receptor). In words: FcRn affinity chromatography, pH gradient elution; retention time compared to protein standards with known affinities. Here is the method: FcRn was expressed, purified and biotinylated as described (Schlothauer et al., MAbs (2013) 5(4), 576-86). For coupling, the prepared receptor was added to streptavidin-sepharose (GE Healthcare). The resulting FcRn-sepharose matrix was packed in a column housing. The column was equilibrated with 20 mM 2-(N-morpholine)-ethanesulfonic acid (MES), 140 mM NaCl, pH 5.5 (eluent A) at a 0.5 ml/min flow rate. 30 μg of antibody samples were diluted at a volume ratio of 1:1 with eluent A and applied to the FcRn column. The column was washed with 5 column volumes of eluent A followed by elution with a linear gradient from 20 to 100% 20 mM Tris/HCl, 140 mM NaCl, pH 8.8 (eluent B) in 35 column volumes. The analysis was performed with a column oven at 25° C. The elution profile was monitored by continuous measurement of the absorbance at 280 nm. Retention times were compared to protein standards with known affinities.
Chain of FcRn (neonatal Fc receptor) (P55899 24-297, chain 1 of 2): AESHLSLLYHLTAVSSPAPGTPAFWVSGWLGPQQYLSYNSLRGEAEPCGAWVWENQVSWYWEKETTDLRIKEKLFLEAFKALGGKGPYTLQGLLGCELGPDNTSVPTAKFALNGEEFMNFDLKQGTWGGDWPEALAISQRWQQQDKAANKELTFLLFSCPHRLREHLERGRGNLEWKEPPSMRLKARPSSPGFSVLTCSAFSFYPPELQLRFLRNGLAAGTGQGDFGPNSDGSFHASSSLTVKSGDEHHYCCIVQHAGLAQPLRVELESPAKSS
Chain of FcRn (neonatal Fc receptor) (P61769 21-119, chain 2 of 2, further chain): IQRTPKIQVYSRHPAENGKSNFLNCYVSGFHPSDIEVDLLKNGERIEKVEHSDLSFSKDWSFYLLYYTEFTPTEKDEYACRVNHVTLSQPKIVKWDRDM

Where a chain is given by its changes, count along the chain named.

T1 sequence (Q9UHE8 whole entry): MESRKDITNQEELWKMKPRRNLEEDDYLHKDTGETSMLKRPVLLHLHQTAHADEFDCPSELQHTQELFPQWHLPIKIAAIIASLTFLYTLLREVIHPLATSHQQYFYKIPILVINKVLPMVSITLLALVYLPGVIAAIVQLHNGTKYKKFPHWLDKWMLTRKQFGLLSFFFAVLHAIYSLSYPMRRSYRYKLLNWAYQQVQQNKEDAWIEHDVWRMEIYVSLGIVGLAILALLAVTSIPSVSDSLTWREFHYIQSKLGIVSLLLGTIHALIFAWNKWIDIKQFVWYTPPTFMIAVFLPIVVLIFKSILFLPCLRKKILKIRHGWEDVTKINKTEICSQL

B1: vandortuzumab (antibody, V domains shown)
VH: EVQLVESGGGLVQPGGSLRLSCAVSGYSITSDYAWNWVRQAPGKGLEWVGYISNSGSTSYNPSLKSRFTISRDTSKNTLYLQMNSLRAEDTAVYYCARERNYDYDDYYYAMDYWGQGTLVTVSS
VL: DIQMTQSPSSLSASVGDRVTITCKSSQSLLYRSNQKNYLAWYQQKPGKAPKLLIYWASTRESGVPSRFSGSGSGTDFTLTISSLQPEDFATYYCQQYYNYPRTFGQGTKVEIK
With B1, the binding result in experiment [1] was “binds”.

B2: Molecule A: 2+1 IgG CrossFab inverted anti-STEAP1/anti-CD3 T cell bispecific (TCB) antibody with the vandortuzumab variable domains (bispecific antibody)
heavy 1: EVQLVESGGGLVQPGGSLRLSCAVSGYSITSDYAWNWVRQAPGKGLEWVGYISNSGSTSYNPSLKSRFTISRDTSKNTLYLQMNSLRAEDTAVYYCARERNYDYDDYYYAMDYWGQGTLVTVSSASTKGPSVFPLAPSSKSTSGGTAALGCLVEDYFPEPVTVSWNSGALTSGVHTFPAVLQSSGLYSLSSVVTVPSSSLGTQTYICNVNHKPSNTKVDEKVEPKSCDKTHTCPPCPAPEAAGGPSVFLFPPKPKDTLMISRTPEVTCVVVDVSHEDPEVKFNWYVDGVEVHNAKTKPREEQYNSTYRVVSVLTVLHQDWLNGKEYKCKVSNKALGAPIEKTISKAKGQPREPQVCTLPPSRDELTKNQVSLSCAVKGFYPSDIAVEWESNGQPENNYKTTPPVLDSDGSFFLVSKLTVDKSRWQQGNVFSCSVMHEALHNHYTQKSLSLSP
heavy 2: not shown
light 1: DIQMTQSPSSLSASVGDRVTITCKSSQSLLYRSNQKNYLAWYQQKPGKAPKLLIYWASTRESGVPSRFSGSGSGTDFTLTISSLQPEDFATYYCQQYYNYPRTFGQGTKVEIKRTVAAPSVFIFPPSDRKLKSGTASVVCLLNNFYPREAKVQWKVDNALQSGNSQESVTEQDSKDSTYSLSSTLTLSKADYEKHKVYACEVTHQGLSSPVTKSFNRGEC
light 2: EVQLLESGGGLVQPGGSLRLSCAASGFTFSTYAMNWVRQAPGKGLEWVSRIRSKYNNYATYYADSVKGRFTISRDDSKNTLYLQMNSLRAEDTAVYYCVRHGNFGNSYVSWFAYWGQGTLVTVSSASVAAPSVFIFPPSDEQLKSGTASVVCLLNNFYPREAKVQWKVDNALQSGNSQESVTEQDSKDSTYSLSSTLTLSKADYEKHKVYACEVTHQGLSSPVTKSFNRGEC
notes: Two STEAP1 Fabs (charge modifications EE/RK) and one CD3 CrossFab (VH/VL exchange), human IgG1 Fc with knob-into-hole and PGLALA; also called STEAP-1 TCB antibody
In the case of B2, the “Relative binding potency (%) (after 28 days at 40° C., pH 6)” value (“Relative binding potency (%)” for short) in experiment [2] worked out at 66%. The molecule also yielded a FcRn affinity in experiment [3] of 0.61.

B3: Molecule D: 2+1 IgG CrossFab inverted anti-STEAP1/anti-CD3 TCB antibody, D100aE/D100bE mutations in both STEAP1 binding moieties (bispecific antibody)
heavy 1: B2 heavy 1 with D105E, D106E
heavy 2: not shown
light 1: B2 light 1
light 2: B2 light 2
notes: Same format as Molecule A; also called STEAP-1 TCB antibody variant (EE)
For B3, the “Relative binding potency (%)” value in experiment [2] amounted to 100%. The same molecule gave a FcRn affinity in experiment [3] of 0.65.

B4: Molecule C: 2+1 IgG CrossFab inverted anti-STEAP1/anti-CD3 TCB antibody, D100bE mutation in both STEAP1 binding moieties (bispecific antibody)
heavy 1: B2 heavy 1 with D106E
heavy 2: not shown
light 1: B2 light 1
light 2: B2 light 2
notes: Same format as Molecule A; also called STEAP-1 TCB antibody variant (DE)
On to B4, for which, in experiment [2], the “Relative binding potency (%)” value came to 69%.

B5: Molecule B: 2+1 IgG CrossFab inverted anti-STEAP1/anti-CD3 TCB antibody, D100aE mutation in both STEAP1 binding moieties (bispecific antibody)
heavy 1: B2 heavy 1 with D105E
heavy 2: not shown
light 1: B2 light 1
light 2: B2 light 2
notes: Same format as Molecule A; also called STEAP-1 TCB antibody variant (ED)
With B5, the “Relative binding potency (%)” value in experiment [2] came out at 79%. This molecule also showed a FcRn affinity in experiment [3] of 0.69.
